Measurements reported in patent US20120269832A1.

What was measured:
[1] = target: human CD40L protein translated from transfected CD40L mRNA (pCR2.1 CD40L WT, >100 nucleotide poly-A tail) (human) (UniProt P29965); assay: cell-based or functional assay
[2] = target: CD40, the cognate receptor molecule for CD40L, on human monocyte-derived dendritic cells (human) (UniProt P25942); assay: cell-based or functional assay
Chain of UniProt P25942 (P25942 21-277): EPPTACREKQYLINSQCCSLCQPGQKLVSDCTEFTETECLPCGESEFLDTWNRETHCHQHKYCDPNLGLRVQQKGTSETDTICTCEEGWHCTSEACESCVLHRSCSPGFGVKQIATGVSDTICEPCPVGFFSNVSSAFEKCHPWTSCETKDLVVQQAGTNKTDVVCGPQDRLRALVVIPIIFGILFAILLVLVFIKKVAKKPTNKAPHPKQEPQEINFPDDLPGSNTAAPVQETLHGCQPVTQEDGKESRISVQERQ

Substance | IL-12p70 (pg/ml), "Cocktail" matured and reactivated DCs co-cultured with HeLa/>100 polyA + IFN-γ + 24-31 [1] | IL-12 p70 release from CD40L mRNA-transfected DCs cultured with IFN-γ and 10 or 50 µg/ml blocking anti-CD40L antibody [1] | IL-12p70 (pg/ml), "Cocktail" matured and reactivated DCs co-cultured with HeLa/>100 polyA + IFN-γ [2] | IL-12p70 (pg/ml), immature DCs co-cultured with HeLa/>100 polyA + IFN-γ [2]
blocking CD40L monoclonal antibody 24-31 (eBioscience) | 2.5 pg/mL | 50% | – | –
human CD40L protein translated from transfected CD40L mRNA (pCR2.1 CD40L WT, >100 nucleotide poly-A tail) (from UniProt P29965 1-261) (ligand) | – | – | 26.3 pg/mL | 372 pg/mL
